Results: PMC1618392, “The crystal structure of superoxide dismutase from Plasmodium falciparum” (BMC Structural Biology, 2006)

Target: the molecule itself
Assay: AUC; sedimentation equilibrium, Beckman Optima XL/I, AN-50Ti rotor; 300 mM NaCl, 50 mM Tris-HCl, pH 7.5

B1: Plasmodium falciparum cytosolic iron superoxide dismutase (enzyme, Plasmodium falciparum (3D7), UniProt Q8IAY6 1-198, looked up)
chain: MVITLPKLKYALNALSPHISEETLNFHYNKHHAGYVNKLNTLIKDTPFAEKSLLDIVKESSGAIFNNAAQIWNHTFYWDSMGPDCGGEPHGEIKEKIQEDFGSFNNFKEQFSNILCGHFGSGWGWLALNNNNKLVILQTHDAGNPIKDNTGIPILTCDIWEHAYYIDYRNDRASYVKAWWNLVNWNFANENLKKAMQK
notes: cytosolic iron superoxide dismutase of Plasmodium falciparum (3D7), residues 1-198, amplified from genomic DNA; The calculated monomer mass is 23,799 Da; In the crystal Lys198 and the eight residues of the tag are not seen; also called PfFeSOD; PfSOD; source: E. coli BL21-CodonPlus, purified (Ni-NTA, Superdex 75 size exclusion)
stoichiometry N: 2
